The record followed here is article PMC11134965.

In assay [1] the target is chicken nesfatin-1/2 (nesfatin-1 and nesfatin-2 conjoined in a head-to-tail manner) (chicken (Gallus gallus)). Put plainly: AUC; sedimentation velocity, 20 °C, 50,000 rpm, buffer B1 (20 mM Tris-HCl pH 7.5, 150 mM NaCl) with 50 µM Zn(II); gN1/2 at 0.92, 1.32, 1.85 mg/ml, gN1 (Table S1); c(s) model.
The target of assay [2] is chicken nesfatin-1 (chicken (Gallus gallus)). The experiment in a line: AUC; sedimentation velocity, 20 °C, 50,000 rpm, buffer B1 (20 mM Tris-HCl pH 7.5, 150 mM NaCl) with 500 µM ZnCl2; gN1 at 0.7, 1.0, 1.3 mg/ml; c(s) model.
Assay [3] has the same target. The experiment in a line: AUC; sedimentation velocity, 20 °C, 50,000 rpm, buffer B1 (20 mM Tris-HCl pH 7.5, 150 mM NaCl) with 50 µM Zn(II); gN1/2 at 0.92, 1.32, 1.85 mg/ml, gN1 (Table S1); c(s) model.

By stoichiometry N is commonly meant the number of molecules, sites or subunits per partner or assembly. Regarding “chicken nesfatin-1/2 (nesfatin-1 and nesfatin-2 conjoined in a head-to-tail manner) (domain or fragment)”, in assay [1], the relative abundance of the second sedimenting species (3.43 S) at 1.85 mg/ml, 50 µM Zn(II) amounted to 13%; the relative abundance of the second sedimenting species (3.49 S) at 0.92 mg/ml, 50 µM Zn(II) came to 13%; the relative abundance of the second sedimenting species (3.64 S) at 1.32 mg/ml, 50 µM Zn(II) is 15%; the stoichiometry N is 2.

In assay [2], chicken nesfatin-1 (peptide) came in with a relative abundance of the second sedimenting species (2.59 S) at 1.0 mg/ml, 500 µM Zn(II) of 51%; a relative abundance of the second sedimenting species (2.60 S) at 0.7 mg/ml, 500 µM Zn(II) of 44%; a relative abundance of the second sedimenting species (2.63 S) at 1.3 mg/ml, 500 µM Zn(II) of 51%; a stoichiometry N of 2. The same substance gave a relative abundance of the second sedimenting species (2.16 S), 50 µM Zn(II) in assay [3] of 17%.
